The text below walks through data of patent US6855270B2, “Nanoscintillation systems for aqueous-based liquid scintillation counting” (The University of Kentucky Research Foundation, priority 2001, dated 2005).

The nature of data set [1]: particle / droplet size by photon correlation spectroscopy (Coulter N4 Plus). The data set is classed as physicochemical. The protocol:
To determine the existence of an oil-in-water microemulsion window for the microemulsion precursor, exactly two (2) milligrams of emulsifying wax were weighed accurately into ten separate 7-mL glass vials and melted at 50° C. on a temperature calibrated magnetic hot plate. Water (0.2 μm filtered) was then added (750-1000 μL) to form a homogeneous milky slurry in the stirring water at 50° C. To form the microemulsion precursor, the surfactant polyoxy 20 stearyl ether (100 mM) in water was added (0-250 μL) so that the final surfactant concentration ranged from 0 mM to 25 mM in the ten vials. The microemulsion precursor was then removed from heat (52-54° C.) and allowed to cool to 25° C. while stirring. […] Thus, an apparent microemulsion window was defined. One hundred (100) μL of each cooled system was taken and diluted with 900 μL water. The particle size of the diluted solid nanoparticles was determined using a Coulter N4 Plus Sub-Micron Particle Sizer at 20° C. by scattering light at 90° for 120 seconds. The particle sizes of systems with no surfactant added could not be determined since the systems contained precipitates that were greater than 3000 nm in diameter. […] To determine if the measured droplet sizes in either the microemulsion nanotemplate or the cured solid nanoparticles were due to the presence of surfactant micelles, samples were made as described above with no emulsifying wax and with final surfactant concentrations ranging from 0 mM to 100 mM in water. […] It is likely that the relatively heterogeneous nature of the polymeric surfactant makes the determination of its CMC difficult using conventional techniques. Photon correlation spectroscopy, using a Coulter N4 Plus Submicron Particle Sizer, was used to determine the existence and the size of the surfactant micelles.
Preparation of polyoxyethylene 2 stearyl ether nanoparticles. Three separate samples of polyoxyethylene 2 stearyl ether nanoparticles were engineered using the following process. Polyoxyethylene 2 stearyl ether (2 mg) was melted at 50-55° C. and dispersed in 970 microliters of water at the same temperature. Thirty microliters of solution of Tween 80 (10% v/v in water) was added to produce a clear oil-in-water microemulsion at approximately 55° C. The oil droplet size of liquid polyoxyethylene 2 stearyl ether was measured by photon correlation spectroscopy to be 22.2±1.8 nanometers at approximately 55° C. Polyoxyethylene 2 stearyl ether nanoparticles were cured by three different methods as follows: Method A) cooling of the undiluted oil-in-water microemulsion at 55° C. to room temperature while stirring, Method B) cooling of the oil-in-water microemulsion at 55° C. by placing undiluted in a refrigerator at 4° C., and Method C) diluting (1/10) the oil-in-water microemulsion at 55° C. with water at 4° C. […] Further, Method A illustrated a key advantage of simply allowing the oil-in-water microemulsion to cool to room temperature to form useful solid nanoparticles. This method allows for rapid, reproducible, and cost-effective method to engineer useful nanoparticles.
Preparation of Emulsifying Wax nanoparticles. Three separate samples of emulsifying wax nanoparticles were engineered using the following process. Emulsifying wax (2 mg) was melted at 50-55° C. and dispersed in 970 microliters of water at the same temperature. […] The oil droplet size of liquid emulsifying wax was measured by photon correlation spectroscopy to be 24.5±0.4 nanometers at approximately 55° C. […]

For data set [2] the following is noted: cited from earlier work.
Setting [3] is: ASF-pal alone in water, 1340 μg/mL.

For `CC(=O)C=C(C)[O-].CC(=O)C=C(C)[O-].CC(=O)C=C(C)[O-].[Gd+3]` [GdAcAc, Gadolinium acetylacetonate], in data set [1], the “diameter of nanoparticles entrapping GdAcAc” value is “about 50 nanometers”.
As to `c1ccc(-c2cnc(-c3ccccc3)o2)cc1` [PPO, 2,5-diphenyloxazole], in data set [2], the “classification of water solubility” value is “water-insoluble”.
“ASF-pal: Asialofetuin derivatized with about 12 palmitate arms per molecule; ligand”: in data set [1] (200 μg nanoparticles per 1 mL), the “effect of added ASF-pal on particle size of cured solid nanoparticles” value is “only a small effect”. Further, the “size of micelles formed” value in data set [1] (ASF-pal alone in water, 67 μg/mL) is reported as 3-15 nm; in data set [1] (setting [3]), 3-10 nm. Besides, the “size of larger aggregates formed” value in data set [1] (setting [3]) is recorded as 40-300 nm.
